1 substance from publication PMC5903968 can be followed below.

In this experiment the target is MMP-2 catalytic domain (MMP-2CAT) (UniProt P08253). Kind of experiment: enzyme inhibition assay.

For orientation: Ki means a dissociation constant, usually derived from enzyme kinetics or from competition with a known ligand. A low value points to higher affinity.

MMP-2 catalytic domain (MMP-2CAT), sequence (P08253 30-660): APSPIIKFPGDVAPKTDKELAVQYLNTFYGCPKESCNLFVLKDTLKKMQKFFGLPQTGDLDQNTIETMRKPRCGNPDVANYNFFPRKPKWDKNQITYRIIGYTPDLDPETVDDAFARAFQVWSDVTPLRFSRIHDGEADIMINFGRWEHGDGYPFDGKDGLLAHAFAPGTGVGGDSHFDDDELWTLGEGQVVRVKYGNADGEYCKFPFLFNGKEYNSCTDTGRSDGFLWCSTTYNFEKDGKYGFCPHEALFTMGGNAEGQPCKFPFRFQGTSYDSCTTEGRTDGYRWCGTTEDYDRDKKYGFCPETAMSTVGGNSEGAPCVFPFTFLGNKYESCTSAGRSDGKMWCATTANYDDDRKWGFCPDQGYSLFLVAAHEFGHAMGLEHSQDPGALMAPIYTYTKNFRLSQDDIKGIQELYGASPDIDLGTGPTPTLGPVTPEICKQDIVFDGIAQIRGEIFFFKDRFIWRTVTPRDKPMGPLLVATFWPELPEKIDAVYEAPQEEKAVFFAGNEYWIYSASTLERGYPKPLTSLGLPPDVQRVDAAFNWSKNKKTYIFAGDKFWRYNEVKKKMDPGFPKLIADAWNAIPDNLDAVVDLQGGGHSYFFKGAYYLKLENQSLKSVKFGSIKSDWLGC

“N-terminal domain of TIMP-2 (N-TIMP2), wild type (from UniProt P16035 27-152) (domain or fragment)” gave a Ki of 2.65 nM.
